According to PMC8797470, “Disruption of the pentraxin 3/CD44 interaction as an efficient therapy for triple‐negative breast cancers” (Clinical and Translational Medicine, 2022):

Target: T1, full-length PTX3 (#1826-TS; R&D Systems) (UniProt P26022 18-381)
T1 construct: bought protein; source: bought: R&D Systems (#1826-TS)
Assay: SPR; BIAcore 3000; full-length PTX3 amine-coupled to a CM5 chip (4000-6000 RU); N-terminal CD44 as analyte; PBS pH 7.2, 10 μl/min, 1 min association, 2 min dissociation; 1:1 Langmuir model
Settings: both partners purified

T1 sequence (P26022 18-381): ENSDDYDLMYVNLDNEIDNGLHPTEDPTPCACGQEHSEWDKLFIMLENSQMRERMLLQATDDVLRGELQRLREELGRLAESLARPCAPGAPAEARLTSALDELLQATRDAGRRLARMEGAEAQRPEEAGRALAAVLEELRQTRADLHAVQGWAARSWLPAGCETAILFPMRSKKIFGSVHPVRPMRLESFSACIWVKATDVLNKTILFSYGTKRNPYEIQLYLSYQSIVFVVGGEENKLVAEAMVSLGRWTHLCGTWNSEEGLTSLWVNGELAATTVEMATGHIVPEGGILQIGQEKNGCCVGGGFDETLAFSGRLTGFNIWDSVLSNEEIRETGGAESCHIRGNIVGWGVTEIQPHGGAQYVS

B1: N-terminal of CD44 (#CD44-3961H; Creative Biomart) (domain or fragment)
chain: QIDLNITCRFAGVFHVEKNGRYSISRTEAADLCKAFNSTLPTMAQMEKALSIGFETCRYGFIEGHVVIPRIHPNSICAANNTGVYILTSNTSQYDTYCFNASAPPEEDCTSVTDLPNAFDGPITITIVNRDGTRYVQKGEYRTNPEDIYPSNPTDDDV
modifications: Bought protein with limits not printed. Limits are the conventional N-terminal hyaluronan-binding domain (Link domain plus flanks, mature start 21 to 178). This range covers the predicted PTX3 …
Question: How did the Kd turn out when B1 was run?
Answer: 21 nM

Question: And the koff?
Answer: 2.43e-06 s⁻¹

Question: And the kon?
Answer: 130 M⁻¹ s⁻¹
